Reference: patent US20200317768A1 (published 2020)

Tests used:
[1] = target: T1, human FcγRIIb constitutively expressed on MDCK cells (human, UniProt P31994 43-310); experiment: cell-based or functional assay
T1 sequence (looked up): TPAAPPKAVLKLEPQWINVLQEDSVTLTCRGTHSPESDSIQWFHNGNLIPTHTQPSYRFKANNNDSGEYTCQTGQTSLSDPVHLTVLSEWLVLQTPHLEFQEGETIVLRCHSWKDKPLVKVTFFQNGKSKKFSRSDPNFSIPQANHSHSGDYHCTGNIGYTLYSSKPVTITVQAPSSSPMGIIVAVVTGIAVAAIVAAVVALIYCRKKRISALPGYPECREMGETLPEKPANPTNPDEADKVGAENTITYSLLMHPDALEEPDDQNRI

[2] = target: T2, soluble mouse FcγRII, His-tagged (mouse, UniProt P08101 30-210, limits assumed); experiment: SPR, mouse FcgRII-His captured, antigen-antibody complex injected, pH7.4, 25C
T2 construct: Captured on the chip by an anti-His antibody
T2 sequence (looked up): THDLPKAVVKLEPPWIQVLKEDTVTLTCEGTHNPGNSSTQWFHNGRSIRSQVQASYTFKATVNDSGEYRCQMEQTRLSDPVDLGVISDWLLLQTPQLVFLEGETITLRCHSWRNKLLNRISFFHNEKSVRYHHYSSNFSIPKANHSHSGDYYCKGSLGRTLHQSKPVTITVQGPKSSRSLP
Protocol: Regarding the produced Fc region variant-containing antibodies, binding assays between soluble mouse FcγRII and antigen-antibody complexes were performed using BIACORE® T200 (GE Healthcare). Soluble mouse FcγRII was produced in the form of a His-tagged molecule by a method known to those skilled in the art. An appropriate amount of an anti-His antibody was fixed onto Sensor chip CM5 (GE Healthcare) by the amine coupling method using a His capture kit (GE Healthcare) to capture mouse FcγRII. Next, an antibody-antigen complex and a running buffer (as a reference solution) were injected, and interaction was allowed to take place with the mouse FcγRII captured onto the sensor chip. 20 mM N-(2-Acetamido)-2-aminoethanesulfonic acid, 150 mM NaCl, 1.2 mM CaCl₂, and 0.05% (w/v) TWEEN, 20 at pH7.4 was used as the running buffer, and the respective buffer was also used to dilute the soluble mouse FcγRII. To regenerate the sensor chip, 10 mM glycine-HCl at pH1.5 was used. All measurements were carried out at 25° C. […] To calculate the parameters, the BIACORE® T100 Evaluation Software (GE Healthcare) was used.

B1: M103205H795-P1535m/M103202L889-SK1 (antibody, human IgG1, kappa)
heavy: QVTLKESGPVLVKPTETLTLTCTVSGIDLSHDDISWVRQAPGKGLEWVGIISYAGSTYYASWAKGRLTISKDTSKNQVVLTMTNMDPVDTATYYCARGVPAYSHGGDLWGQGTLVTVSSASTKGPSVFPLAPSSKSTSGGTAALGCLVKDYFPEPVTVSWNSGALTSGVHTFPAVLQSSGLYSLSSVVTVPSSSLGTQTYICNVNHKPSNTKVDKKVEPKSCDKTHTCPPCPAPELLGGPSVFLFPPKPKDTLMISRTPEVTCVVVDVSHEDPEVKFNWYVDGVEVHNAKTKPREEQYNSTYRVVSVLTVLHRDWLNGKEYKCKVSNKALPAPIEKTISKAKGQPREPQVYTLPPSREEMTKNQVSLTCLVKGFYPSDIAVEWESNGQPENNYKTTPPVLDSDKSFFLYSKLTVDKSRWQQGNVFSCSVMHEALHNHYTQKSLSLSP
light: DIVMTQSPATLSLSPGERATLSCTSSQSVYHANWLSWFQQKPGQPPKLLIYWASTLAYGVPSRFSGSGSGTDFTLTISSLQPEDAATYYCAGGYGGGRYAFGQGTKVEIKRTVAAPSVFIFPPSDEQLKSGTASVVCLLNNFYPREAKVQWKVDNALQSGNSQESVTEQDSKDSTYSLSSTLTLSKADYEKHKVYACEVTHQGLSSPVTKSFNRGEC
- celluar uptake [1]: 2.49 relative to SG1 (=1.00)
- biacore IC binding [2]: 1.11 relative to SG1 (=1.00)

B2: M103205H795-P1536m/M103202L889-SK1 (antibody, human IgG1, kappa)
heavy: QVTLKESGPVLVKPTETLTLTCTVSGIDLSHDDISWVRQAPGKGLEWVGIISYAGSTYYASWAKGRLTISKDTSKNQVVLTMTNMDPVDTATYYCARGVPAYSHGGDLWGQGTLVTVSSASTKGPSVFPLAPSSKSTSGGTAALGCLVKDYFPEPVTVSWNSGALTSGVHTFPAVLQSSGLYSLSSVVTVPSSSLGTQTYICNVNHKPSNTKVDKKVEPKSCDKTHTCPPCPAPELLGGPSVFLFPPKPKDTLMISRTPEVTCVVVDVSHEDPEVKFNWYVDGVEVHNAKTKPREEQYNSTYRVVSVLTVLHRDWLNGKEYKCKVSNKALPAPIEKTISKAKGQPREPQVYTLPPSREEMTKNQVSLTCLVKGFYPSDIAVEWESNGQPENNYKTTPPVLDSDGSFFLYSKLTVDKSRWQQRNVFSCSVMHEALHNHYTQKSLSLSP
light: DIVMTQSPATLSLSPGERATLSCTSSQSVYHANWLSWFQQKPGQPPKLLIYWASTLAYGVPSRFSGSGSGTDFTLTISSLQPEDAATYYCAGGYGGGRYAFGQGTKVEIKRTVAAPSVFIFPPSDEQLKSGTASVVCLLNNFYPREAKVQWKVDNALQSGNSQESVTEQDSKDSTYSLSSTLTLSKADYEKHKVYACEVTHQGLSSPVTKSFNRGEC
- celluar uptake [1]: 2.05 relative to SG1 (=1.00)
- biacore IC binding [2]: 1.16 relative to SG1 (=1.00)

B3: M103205H795-P1537m/M103202L889-SK1 (antibody, human IgG1, kappa)
heavy: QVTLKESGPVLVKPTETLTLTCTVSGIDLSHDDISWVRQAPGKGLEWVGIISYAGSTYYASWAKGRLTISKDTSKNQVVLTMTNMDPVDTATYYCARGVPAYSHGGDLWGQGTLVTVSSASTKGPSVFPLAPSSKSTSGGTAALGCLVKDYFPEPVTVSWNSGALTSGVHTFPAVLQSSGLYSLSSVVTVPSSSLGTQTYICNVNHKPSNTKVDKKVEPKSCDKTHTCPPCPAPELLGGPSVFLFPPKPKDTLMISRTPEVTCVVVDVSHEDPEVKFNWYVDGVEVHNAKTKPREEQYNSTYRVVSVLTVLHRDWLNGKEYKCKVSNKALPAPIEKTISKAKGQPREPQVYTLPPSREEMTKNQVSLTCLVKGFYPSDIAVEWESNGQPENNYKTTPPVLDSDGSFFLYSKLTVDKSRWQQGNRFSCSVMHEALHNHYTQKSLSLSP
light: DIVMTQSPATLSLSPGERATLSCTSSQSVYHANWLSWFQQKPGQPPKLLIYWASTLAYGVPSRFSGSGSGTDFTLTISSLQPEDAATYYCAGGYGGGRYAFGQGTKVEIKRTVAAPSVFIFPPSDEQLKSGTASVVCLLNNFYPREAKVQWKVDNALQSGNSQESVTEQDSKDSTYSLSSTLTLSKADYEKHKVYACEVTHQGLSSPVTKSFNRGEC
- celluar uptake [1]: 2.77 relative to SG1 (=1.00)
- biacore IC binding [2]: 1.32 relative to SG1 (=1.00)

B4: M103205H795-P1538m/M103202L889-SK1 (antibody, human IgG1, kappa)
heavy: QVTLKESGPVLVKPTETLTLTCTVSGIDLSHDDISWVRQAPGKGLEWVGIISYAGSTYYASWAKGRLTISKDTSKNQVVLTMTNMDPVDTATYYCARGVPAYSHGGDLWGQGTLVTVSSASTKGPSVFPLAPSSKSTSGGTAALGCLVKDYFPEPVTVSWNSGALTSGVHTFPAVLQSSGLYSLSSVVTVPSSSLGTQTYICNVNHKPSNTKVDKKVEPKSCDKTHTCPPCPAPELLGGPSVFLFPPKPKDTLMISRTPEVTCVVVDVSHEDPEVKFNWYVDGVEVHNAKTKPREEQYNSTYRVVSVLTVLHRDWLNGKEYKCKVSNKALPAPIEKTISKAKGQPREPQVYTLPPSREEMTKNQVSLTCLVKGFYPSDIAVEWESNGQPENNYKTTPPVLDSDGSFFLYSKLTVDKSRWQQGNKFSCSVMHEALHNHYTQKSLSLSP
light: DIVMTQSPATLSLSPGERATLSCTSSQSVYHANWLSWFQQKPGQPPKLLIYWASTLAYGVPSRFSGSGSGTDFTLTISSLQPEDAATYYCAGGYGGGRYAFGQGTKVEIKRTVAAPSVFIFPPSDEQLKSGTASVVCLLNNFYPREAKVQWKVDNALQSGNSQESVTEQDSKDSTYSLSSTLTLSKADYEKHKVYACEVTHQGLSSPVTKSFNRGEC
- celluar uptake [1]: 1.84 relative to SG1 (=1.00)
- biacore IC binding [2]: 1.11 relative to SG1 (=1.00)

B5: M103205H795-P1539m/M103202L889-SK1 (antibody, human IgG1, kappa)
heavy: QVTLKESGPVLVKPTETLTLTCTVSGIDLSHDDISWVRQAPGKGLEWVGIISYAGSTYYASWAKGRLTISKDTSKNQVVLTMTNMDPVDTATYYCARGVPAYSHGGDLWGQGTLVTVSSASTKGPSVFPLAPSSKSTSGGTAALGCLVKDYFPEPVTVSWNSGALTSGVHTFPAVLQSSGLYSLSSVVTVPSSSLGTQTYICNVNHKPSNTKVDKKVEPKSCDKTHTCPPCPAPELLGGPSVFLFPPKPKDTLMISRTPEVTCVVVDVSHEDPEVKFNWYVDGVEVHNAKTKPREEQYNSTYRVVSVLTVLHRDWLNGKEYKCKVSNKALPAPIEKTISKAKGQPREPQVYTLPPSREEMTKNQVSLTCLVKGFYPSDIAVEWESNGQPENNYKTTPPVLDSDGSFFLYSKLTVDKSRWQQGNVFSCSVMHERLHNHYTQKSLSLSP
light: DIVMTQSPATLSLSPGERATLSCTSSQSVYHANWLSWFQQKPGQPPKLLIYWASTLAYGVPSRFSGSGSGTDFTLTISSLQPEDAATYYCAGGYGGGRYAFGQGTKVEIKRTVAAPSVFIFPPSDEQLKSGTASVVCLLNNFYPREAKVQWKVDNALQSGNSQESVTEQDSKDSTYSLSSTLTLSKADYEKHKVYACEVTHQGLSSPVTKSFNRGEC
- celluar uptake [1]: 3.2 relative to SG1 (=1.00)
- biacore IC binding [2]: 0.9 relative to SG1 (=1.00)

B6: M103205H795-P1540m/M103202L889-SK1 (antibody, human IgG1, kappa)
heavy: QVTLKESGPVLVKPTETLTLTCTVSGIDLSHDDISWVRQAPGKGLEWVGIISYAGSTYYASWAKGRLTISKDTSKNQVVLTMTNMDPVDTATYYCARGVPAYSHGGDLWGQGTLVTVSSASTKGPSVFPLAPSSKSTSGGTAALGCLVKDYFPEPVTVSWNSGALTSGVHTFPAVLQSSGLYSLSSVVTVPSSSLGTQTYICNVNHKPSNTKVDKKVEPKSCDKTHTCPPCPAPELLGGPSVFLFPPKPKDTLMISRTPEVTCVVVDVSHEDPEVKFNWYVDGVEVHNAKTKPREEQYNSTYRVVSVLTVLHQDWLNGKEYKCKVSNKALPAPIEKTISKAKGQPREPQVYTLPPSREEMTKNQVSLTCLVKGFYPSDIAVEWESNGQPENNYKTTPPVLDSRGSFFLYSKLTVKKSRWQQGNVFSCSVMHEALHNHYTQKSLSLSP
light: DIVMTQSPATLSLSPGERATLSCTSSQSVYHANWLSWFQQKPGQPPKLLIYWASTLAYGVPSRFSGSGSGTDFTLTISSLQPEDAATYYCAGGYGGGRYAFGQGTKVEIKRTVAAPSVFIFPPSDEQLKSGTASVVCLLNNFYPREAKVQWKVDNALQSGNSQESVTEQDSKDSTYSLSSTLTLSKADYEKHKVYACEVTHQGLSSPVTKSFNRGEC
- celluar uptake [1]: 7.64 relative to SG1 (=1.00)
- biacore IC binding [2]: 1.73 relative to SG1 (=1.00)

B7: M103205H795-P1541m/M103202L889-SK1 (antibody, human IgG1, kappa)
heavy: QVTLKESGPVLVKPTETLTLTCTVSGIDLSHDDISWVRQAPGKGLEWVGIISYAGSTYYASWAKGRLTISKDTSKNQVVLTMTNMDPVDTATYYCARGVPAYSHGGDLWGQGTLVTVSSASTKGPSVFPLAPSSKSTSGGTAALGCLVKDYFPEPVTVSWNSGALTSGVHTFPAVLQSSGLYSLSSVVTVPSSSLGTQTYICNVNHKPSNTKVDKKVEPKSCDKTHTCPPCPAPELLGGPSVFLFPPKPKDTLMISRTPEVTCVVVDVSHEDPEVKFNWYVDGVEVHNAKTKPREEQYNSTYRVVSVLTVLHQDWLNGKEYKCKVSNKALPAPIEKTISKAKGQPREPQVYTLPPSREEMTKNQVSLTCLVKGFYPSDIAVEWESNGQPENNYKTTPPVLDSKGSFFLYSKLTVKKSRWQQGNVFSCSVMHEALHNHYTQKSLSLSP
light: DIVMTQSPATLSLSPGERATLSCTSSQSVYHANWLSWFQQKPGQPPKLLIYWASTLAYGVPSRFSGSGSGTDFTLTISSLQPEDAATYYCAGGYGGGRYAFGQGTKVEIKRTVAAPSVFIFPPSDEQLKSGTASVVCLLNNFYPREAKVQWKVDNALQSGNSQESVTEQDSKDSTYSLSSTLTLSKADYEKHKVYACEVTHQGLSSPVTKSFNRGEC
- celluar uptake [1]: 7.17 relative to SG1 (=1.00)
- biacore IC binding [2]: 1.57 relative to SG1 (=1.00)

B8: M103205H795-P1542m/M103202L889-SK1 (antibody, human IgG1, kappa)
heavy: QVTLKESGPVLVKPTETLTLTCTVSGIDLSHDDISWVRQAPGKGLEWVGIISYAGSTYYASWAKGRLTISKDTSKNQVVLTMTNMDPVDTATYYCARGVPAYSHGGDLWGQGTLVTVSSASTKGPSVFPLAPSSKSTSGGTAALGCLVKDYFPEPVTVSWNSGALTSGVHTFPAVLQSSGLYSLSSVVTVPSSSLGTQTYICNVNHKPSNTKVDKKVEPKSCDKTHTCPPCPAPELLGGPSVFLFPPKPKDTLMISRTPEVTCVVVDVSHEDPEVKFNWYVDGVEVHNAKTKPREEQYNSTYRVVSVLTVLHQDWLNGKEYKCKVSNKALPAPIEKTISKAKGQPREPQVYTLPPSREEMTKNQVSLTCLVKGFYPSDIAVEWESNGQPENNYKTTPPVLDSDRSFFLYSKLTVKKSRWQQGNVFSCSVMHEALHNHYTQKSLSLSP
light: DIVMTQSPATLSLSPGERATLSCTSSQSVYHANWLSWFQQKPGQPPKLLIYWASTLAYGVPSRFSGSGSGTDFTLTISSLQPEDAATYYCAGGYGGGRYAFGQGTKVEIKRTVAAPSVFIFPPSDEQLKSGTASVVCLLNNFYPREAKVQWKVDNALQSGNSQESVTEQDSKDSTYSLSSTLTLSKADYEKHKVYACEVTHQGLSSPVTKSFNRGEC
- celluar uptake [1]: 3.32 relative to SG1 (=1.00)
- biacore IC binding [2]: 1.21 relative to SG1 (=1.00)

B9: M103205H795-P1543m/M103202L889-SK1 (antibody, human IgG1, kappa)
heavy: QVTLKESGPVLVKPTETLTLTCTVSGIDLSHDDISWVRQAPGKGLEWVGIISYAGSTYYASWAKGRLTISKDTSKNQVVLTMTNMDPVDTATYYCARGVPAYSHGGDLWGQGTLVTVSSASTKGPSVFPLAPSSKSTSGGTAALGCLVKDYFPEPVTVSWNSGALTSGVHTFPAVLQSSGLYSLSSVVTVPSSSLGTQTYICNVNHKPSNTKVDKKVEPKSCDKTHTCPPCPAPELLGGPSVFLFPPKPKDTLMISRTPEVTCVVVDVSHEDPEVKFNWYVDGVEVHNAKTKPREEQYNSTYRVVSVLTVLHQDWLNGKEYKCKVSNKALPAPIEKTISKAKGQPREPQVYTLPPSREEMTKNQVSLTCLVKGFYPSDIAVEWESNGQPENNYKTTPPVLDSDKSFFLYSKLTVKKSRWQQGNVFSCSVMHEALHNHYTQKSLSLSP
light: DIVMTQSPATLSLSPGERATLSCTSSQSVYHANWLSWFQQKPGQPPKLLIYWASTLAYGVPSRFSGSGSGTDFTLTISSLQPEDAATYYCAGGYGGGRYAFGQGTKVEIKRTVAAPSVFIFPPSDEQLKSGTASVVCLLNNFYPREAKVQWKVDNALQSGNSQESVTEQDSKDSTYSLSSTLTLSKADYEKHKVYACEVTHQGLSSPVTKSFNRGEC
- celluar uptake [1]: 3.7 relative to SG1 (=1.00)
- biacore IC binding [2]: 1.19 relative to SG1 (=1.00)

B10: M103205H795-P1544m/M103202L889-SK1 (antibody, human IgG1, kappa)
heavy: QVTLKESGPVLVKPTETLTLTCTVSGIDLSHDDISWVRQAPGKGLEWVGIISYAGSTYYASWAKGRLTISKDTSKNQVVLTMTNMDPVDTATYYCARGVPAYSHGGDLWGQGTLVTVSSASTKGPSVFPLAPSSKSTSGGTAALGCLVKDYFPEPVTVSWNSGALTSGVHTFPAVLQSSGLYSLSSVVTVPSSSLGTQTYICNVNHKPSNTKVDKKVEPKSCDKTHTCPPCPAPELLGGPSVFLFPPKPKDTLMISRTPEVTCVVVDVSHEDPEVKFNWYVDGVEVHNAKTKPREEQYNSTYRVVSVLTVLHRDWLNGKEYKCKVSNKALPAPIEKTISKAKGQPREPQVYTLPPSREEMTKNQVSLTCLVKGFYPSDIAVEWESNGQPENNYKTTPPVLDSRGSFFLYSKLTVKKSRWQQGNVFSCSVMHEALHNHYTQKSLSLSP
light: DIVMTQSPATLSLSPGERATLSCTSSQSVYHANWLSWFQQKPGQPPKLLIYWASTLAYGVPSRFSGSGSGTDFTLTISSLQPEDAATYYCAGGYGGGRYAFGQGTKVEIKRTVAAPSVFIFPPSDEQLKSGTASVVCLLNNFYPREAKVQWKVDNALQSGNSQESVTEQDSKDSTYSLSSTLTLSKADYEKHKVYACEVTHQGLSSPVTKSFNRGEC
- celluar uptake [1]: 7.66 relative to SG1 (=1.00)
- biacore IC binding [2]: 2.04 relative to SG1 (=1.00)

B11: M103205H795-P1545m/M103202L889-SK1 (antibody, human IgG1, kappa)
heavy: QVTLKESGPVLVKPTETLTLTCTVSGIDLSHDDISWVRQAPGKGLEWVGIISYAGSTYYASWAKGRLTISKDTSKNQVVLTMTNMDPVDTATYYCARGVPAYSHGGDLWGQGTLVTVSSASTKGPSVFPLAPSSKSTSGGTAALGCLVKDYFPEPVTVSWNSGALTSGVHTFPAVLQSSGLYSLSSVVTVPSSSLGTQTYICNVNHKPSNTKVDKKVEPKSCDKTHTCPPCPAPELLGGPSVFLFPPKPKDTLMISRTPEVTCVVVDVSHEDPEVKFNWYVDGVEVHNAKTKPREEQYNSTYRVVSVLTVLHRDWLNGKEYKCKVSNKALPAPIEKTISKAKGQPREPQVYTLPPSREEMTKNQVSLTCLVKGFYPSDIAVEWESNGQPENNYKTTPPVLDSKGSFFLYSKLTVKKSRWQQGNVFSCSVMHEALHNHYTQKSLSLSP
light: DIVMTQSPATLSLSPGERATLSCTSSQSVYHANWLSWFQQKPGQPPKLLIYWASTLAYGVPSRFSGSGSGTDFTLTISSLQPEDAATYYCAGGYGGGRYAFGQGTKVEIKRTVAAPSVFIFPPSDEQLKSGTASVVCLLNNFYPREAKVQWKVDNALQSGNSQESVTEQDSKDSTYSLSSTLTLSKADYEKHKVYACEVTHQGLSSPVTKSFNRGEC
- celluar uptake [1]: 7.73 relative to SG1 (=1.00)
- biacore IC binding [2]: 1.8 relative to SG1 (=1.00)
